Drawing on patent US20060094649A1, this text covers IC50 for 36 molecules.

Holding throughout (conditions): remark: other sources report otherwise
The target in assay [1] is HLA-A*0301 (human). The assay is described as follows: competition vs 125I probe, purified HLA.
Assay [2] deals with HLA-A*3101 (human). The assay is described as follows: competition vs 125I probe, purified HLA.
In a further assay the target is HLA-B*4002 (human). Description: competition with radiolabeled probe peptide, purified HLA.
Assay [3] has as its target HLA-A*1101 (human). The assay is described as follows: competitive inhibition of 125I-A3con binding to purified HLA.
Assay [4] addresses HLA-A*1101 (human). Description: competition vs 125I probe, purified HLA.
The next assay has as its target HLA-A*6801 (human). Description: competition vs 125I probe, purified HLA.
Assay [5] deals with HLA-A*0301 (human). Description: competitive inhibition of 125I-A3con binding to purified HLA.
A further assay has as its target HLA-B*5401 (human). Description: competition vs 125I probe, purified HLA.
A further assay concerns the target HLA-A*3301 (human). The assay is described as follows: competition vs 125I probe, purified HLA.
The next assay deals with HLA-B*3501 (human). Description: inhibition of 125I-B35con2 probe, purified HLA.
The target of another assay is HLA-B*5301 (human). Description: competition vs 125I probe, purified HLA.
Assay [6] has as its target HLA-A*3101 (human). Description: competitive inhibition of 125I-A3con binding to purified HLA.
Another assay deals with HLA-B*0702 (human). The assay is described as follows: inhibition of 125I-[..] probe, purified HLA.

B1: MAGE3.138.V2R9 (peptide)
peptide: YVFPVIFSR
The IC50 is the concentration that inhibits the measured activity by half. Low values mean greater potency in that assay, high ones weaker potency in that assay. For the molecule B1, the IC50 in the assay with HLA-A*0301 (human) [1] was found to be 36 nM; with HLA-A*3101 (human) [2] it was 6 nM.

B2: … (peptide)
peptide: GERLPQPPICTI
For the molecule B2, the half-maximal inhibitory concentration (IC50) in the assay with HLA-B*4002 (human) worked out at 9.5 nM.

B3: p53.101.K10 … (peptide)
peptide: KTYQGSYGFK
In the assay with HLA-A*1101 (human) [3], B3 had an IC50 of 14 nM. In other words, the double-digit nanomolar range.

B4: p53.124 (peptide)
peptide: CTYSPALNK
On to B4, for which the IC50 in the assay with HLA-A*3101 (human) [2] was found to be 1500 nM.

B5: p53.273 (8-mer) (peptide)
peptide: RVCACPGR
With B5, the IC50 in the assay with HLA-A*0301 (human) [1] was determined as 31 nM. This lies in the double-digit nanomolar range.

B6: MAGE2/3.116 (8-mer) (peptide)
peptide: LVHFLLLK
Turning to B6, the IC50 in the assay with HLA-A*1101 (human) [4] is 40 nM; in the assay with HLA-A*6801 (human), 400 nM.

B7: p53.154 … (peptide)
peptide: GTRVRAMAIYK
With B7, in the assay with HLA-A*0301 (human) [5], the IC50 stood at 10 nM.

B8: CEA.13 (peptide)
peptide: IPWQRLLLTA
On to B8, for which, in the assay with HLA-B*5401 (human), the half-inhibitory concentration (IC50) turned out to be 3.2 nM.

B9: MAGE3.189 (peptide)
peptide: LLGDNQIMPK
The molecule B9 yielded an IC50 in the assay with HLA-A*0301 (human) [1] of 500 nM.

B10: MAGE2.226 (peptide)
peptide: SMLEVFEGR
The molecule B10 had a half-maximal inhibitory concentration (IC50) in the assay with HLA-A*3301 (human) of 9 nM. That is a single-digit nanomolar value.

B11: p53.154 (peptide)
peptide: GTRVRAMAIYK
With B11, the IC50 with HLA-A*0301 (human) [1] came out at 10 nM.

B12: MAGE2.69.K9 … (peptide)
peptide: SSFSTTINK
In turn, B12 displayed a half-maximal inhibitory concentration (IC50) with HLA-A*1101 (human) [3] of 3 nM.

B13: p53.84 APAPAPSW (peptide)
peptide: APAPAPSW
Take B13: in the assay with HLA-B*3501 (human), the half-maximal inhibitory concentration (IC50) turned out to be 32.7 nM.

B14: p53.376.V2R11 (peptide)
peptide: SVSRHKKLMFR
B14 yielded an IC50 in the assay with HLA-A*6801 (human) of 500 nM.

B15: p53.375.V2 (peptide)
peptide: SVSRHKKLMFK
The molecule B15 showed an IC50 with HLA-A*0301 (human) [1] of 33 nM.

B16: MAGE3.138.V2 … (peptide)
peptide: YVFPVIFSK
With B16, in the assay with HLA-A*1101 (human) [3], the concentration for half-maximal inhibition (IC50) worked out at 3 nM.

B17: Her2/neu.921I8 (peptide)
peptide: KPYDGIPI
In turn, B17 displayed an IC50 with HLA-B*5301 (human) of 51.7 nM.

B18: p53.273 RVCACPGR (peptide)
peptide: RVCACPGR
With B18, in the assay with HLA-A*0301 (human) [5], the 50% inhibitory concentration (IC50) was determined as 31 nM. This lies in the double-digit nanomolar range.

B19: p53.101.K10 (peptide)
peptide: KTYQGSYGFK
As to B19, the IC50 with HLA-A*1101 (human) [4] turned out to be 14 nM.

B20: MAGE2.71 (peptide)
peptide: FSTTINYTLWR
In turn, B20 gave an IC50 in the assay with HLA-A*0301 (human) [1] of 1000 nM.

B21: MAGE2.69.K9 (peptide)
peptide: SSFSTTINK
The molecule B21 came in with a 50% inhibitory concentration (IC50) with HLA-A*1101 (human) [4] of 3 nM.

B22: p53.240 (9-mer) (peptide)
peptide: SSCMGGMNR
Take B22: the results for the IC50 in the assay with HLA-A*1101 (human) [4] and with HLA-A*0301 (human) [1] were 4.3 nM and 550 nM, respectively.

B23: p53.156.R9 (peptide)
peptide: RVRAMAIYR
Take B23: in the assay with HLA-A*3101 (human) [2], the IC50 turned out to be 9 nM.

B24: p53.124 … (peptide)
peptide: CTYSPALNK
As for B24, the IC50 in the assay with HLA-A*3101 (human) [6] amounted to 1500 nM. That is a single-digit micromolar value.

B25: p53.132 (peptide)
peptide: KMFCQLAK
Turning to B25, the IC50 was found to be 17 nM with HLA-A*1101 (human) [4], 727 nM with HLA-A*6801 (human) and 29 nM in the assay with HLA-A*0301 (human) [1].

B26: MAGE3.77.I8 YPLWSQSI (peptide)
peptide: YPLWSQSI
Consider B26, for which the IC50 with HLA-B*0702 (human) amounted to 60 nM.

B27: MAGE3.138.V2 (peptide)
peptide: YVFPVIFSK
The molecule B27 returned an IC50 with HLA-A*1101 (human) [4] of 3 nM.

B28: p53.101.V2K10 (peptide)
peptide: KVYQGSYGFK
As for B28, the half-maximal inhibitory concentration (IC50) was 9.2 nM with HLA-A*1101 (human) [4], 38 nM in the assay with HLA-A*6801 (human) and 33 nM in the assay with HLA-A*0301 (human) [1].

B29: p53.240 (10-mer) (peptide)
peptide: SSCMGGMNRR
In the assay with HLA-A*1101 (human) [4], B29 registered a concentration for half-maximal inhibition (IC50) of 70 nM.

B30: p53.154.V2 (peptide)
peptide: GVRVRAMAIYK
The molecule B30 showed an IC50 with HLA-A*0301 (human) [1] of 58 nM.

B31: MAGE3.138 (peptide)
peptide: YFFPVIFSK
B31 showed an IC50 in the assay with HLA-A*0301 (human) [1] of 5000 nM.

B32: MAGE2/3.116 (9-mer) (peptide)
peptide: LVHFLLLKY
Consider B32, for which the half-inhibitory concentration (IC50) with HLA-A*6801 (human) came to 8000 nM.

B33: MAGE2.277 (peptide)
peptide: ALIETSYVK
In turn, B33 showed a half-inhibitory concentration (IC50) in the assay with HLA-A*3101 (human) [2] of 900 nM.

B34: p53.101.V2 (peptide)
peptide: KVYQGSYGFR
Take B34: the IC50 in the assay with HLA-A*1101 (human) [4] was 62 nM; in the assay with HLA-A*6801 (human), 40 nM; with HLA-A*0301 (human) [1], 38 nM; with HLA-A*3101 (human) [2] it was 72 nM.

B35: p53.156 (peptide)
peptide: RVRAMAIYK
As to B35, the half-maximal inhibitory concentration (IC50) with HLA-A*3101 (human) [2] came out at 5 nM.

B36: MAGE2.73.V2K9 (peptide)
peptide: TVINYTLWK
Molecule B36 displayed an IC50 with HLA-A*3101 (human) [2] of 9000 nM.
